Columns and labels:
[1] = cycloheximide chase of SHH-C, HA immunoblot; details: glycan changed form; control: untreated cells
[2] = HA immunoblot of auto-cleavage; details: glycan lost; control: wild-type SHH-HA

## sonic hedgehog (SHH): castanospermine (CST)
[1]
  degradation_or_half_life: decreases

## sonic hedgehog (SHH): N278A
[2]
  other: proteolytic processing: abolishes

## sonic hedgehog (SHH): kifunensine (KIF)
[1]
  degradation_or_half_life: decreases

Reference: article PMC4049591
